Reference: publication PMC7319042 (Structure (London, England : 1993), 2018)

Experiments:
[1] = target: Rev (Human immunodeficiency virus 1) (UniProt P04325); conditions: cited from earlier work
Rev116 = Rev116 (HIV-1, UniProt P04616 1-116); assay: analytical ultracentrifugation
[2] = target: T1, HIV-1 Rev^116 (full-length wild-type Rev) (HIV-1), P04618; assay: light scattering at 320 nm of thermally induced assembly; conditions: remark: other sources report otherwise
T1 chain: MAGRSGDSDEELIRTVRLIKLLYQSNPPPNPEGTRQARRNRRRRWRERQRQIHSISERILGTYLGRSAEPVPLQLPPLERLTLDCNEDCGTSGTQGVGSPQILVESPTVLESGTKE

[3] = target: T1, HIV-1 Rev^116 (full-length wild-type …); assay: AUC; conditions: remark: other sources report otherwise
[4] = target: HIV-1 Rev^93 (C-terminally truncated Rev, amino acids 1-93) (HIV-1, UniProt P04618); assay: crystal structure
[5] = target: HIV-1 Rev^116 (full-length wild-type Rev) (HIV-1, UniProt P04618); assay: light scattering at 320 nm of the

Molecule: Rev (from UniProt P04325)
- Kd [1]: 1000 nM

Molecule: GGCUGGACUCGUACUUCGGUACUGGAGAAACAGCC (structured_RNA) [RBA-14]
- binding result (Rev116): binds

B1: HIV-1 Rev^116 (full-length wild-type Rev), P04618 1-116 (natural protein)
chain: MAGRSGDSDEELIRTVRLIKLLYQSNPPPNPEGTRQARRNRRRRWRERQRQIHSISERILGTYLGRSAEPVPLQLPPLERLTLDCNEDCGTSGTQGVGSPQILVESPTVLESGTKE
- critical concentration (Cr) of polymer formation [2]: 11 µM
- stoichiometry N [3]: 4

B2: chimeric rabbit/human scFv SJS-R1 (anti-Rev single-chain variable fragment) (scFv, V domains shown)
VH: QEQLVESGGRLVTPGTALTLTCKVSGFSLSGFWLNWVRQAPGKGLEWVGAIYRGSGSEWYASWAKGRFTISDTSTTVTLKLTSPTTEDTATYFCAADTTDNGYFTIWGPGTLVTVSS
VL: ELVMTQTPSSVSEPVGGTVTIKCQASQSISSWLSWYQQKPGQPPKLLIYDASNLASGVPSRFMGSGSGTEYTLTISGVQREDAATYYCLGGYPAASYRTAFGGGTELEII
- binding result [4]: binds
- binding result [5]: binds
